Laboratory results as given in the supplement of paper PMC10567573.

B1: FUT8 (parent)
chain: YAHQPRTADEIPMEPGDIIGVAGN
B2: PHTF1 (parent)
chain: SRHLNSQVKKTTTRWCHIVRDSDS

Variants of: B1
Experiment: protein stability index of a GFP-peptide fusion (GPS, HEK-293T) (PSI 1-6); higher = more stable
Details: c terminus: a fixed tail appended
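Further: lentivirally expressed fusions sorted by FACS into six bins by GFP to DsRed ratio, PSI derived from sequencing read proportions per bin multiplied by bin number.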

Variant | protein stability index
YAPQPRTADEIPMEPGDIIGVAGN | 2.92
YAGQPRTADEIPMEPGDIIGVAGN | 3.36
YAFQPRTADEIPMEPGDIIGVAGN | 3.66
YATQPRTADEIPMEPGDIIGVAGN | 4.25
YAKQPRTADEIPMEPGDIIGVAGN | 4.34
YANQPRTADEIPMEPGDIIGVAGN | 4.43
YACQPRTADEIPMEPGDIIGVAGN | 3.62
YAMQPRTADEIPMEPGDIIGVAGN | 3.99
YADQPRTADEIPMEPGDIIGVAGN | 4.78
YAVQPRTADEIPMEPGDIIGVAGN | 4.46
YAEQPRTADEIPMEPGDIIGVAGN | 4.87
YAYQPRTADEIPMEPGDIIGVAGN | 3.45
YAAQPRTADEIPMEPGDIIGVAGN | 4.56
YAWQPRTADEIPMEPGDIIGVAGN | 3.11
YAQQPRTADEIPMEPGDIIGVAGN | 4.39
YAIQPRTADEIPMEPGDIIGVAGN | 4.2
YALQPRTADEIPMEPGDIIGVAGN | 4.77
YASQPRTADEIPMEPGDIIGVAGN | 4.36
YARQPRTADEIPMEPGDIIGVAGN | 3.44
YAHCPRTADEIPMEPGDIIGVAGN | 3.81
YAHMPRTADEIPMEPGDIIGVAGN | 3.73
YAHVPRTADEIPMEPGDIIGVAGN | 3.5
YAHTPRTADEIPMEPGDIIGVAGN | 3.72
YAHAPRTADEIPMEPGDIIGVAGN | 4.07
YAHWPRTADEIPMEPGDIIGVAGN | 1.98
YAHGPRTADEIPMEPGDIIGVAGN | 3.52

Variant | protein stability index
YAHRPRTADEIPMEPGDIIGVAGN | 3.06
YAHYPRTADEIPMEPGDIIGVAGN | 3.66
YAHNPRTADEIPMEPGDIIGVAGN | 4.07
YAHHPRTADEIPMEPGDIIGVAGN | 3.92
YAHIPRTADEIPMEPGDIIGVAGN | 3.54
YAHSPRTADEIPMEPGDIIGVAGN | 3.8
YAHKPRTADEIPMEPGDIIGVAGN | 2.85
YAHLPRTADEIPMEPGDIIGVAGN | 4.26
YAHEPRTADEIPMEPGDIIGVAGN | 4.61
YAHDPRTADEIPMEPGDIIGVAGN | 4.36
YAHPPRTADEIPMEPGDIIGVAGN | 3.52
YAHFPRTADEIPMEPGDIIGVAGN | 2.77
YAHQPYTADEIPMEPGDIIGVAGN | 3.73
YAHQPMTADEIPMEPGDIIGVAGN | 3.84
YAHQPGTADEIPMEPGDIIGVAGN | 4.65
YAHQPKTADEIPMEPGDIIGVAGN | 3.99
YAHQPVTADEIPMEPGDIIGVAGN | 4.44
YAHQPPTADEIPMEPGDIIGVAGN | 4.78
YAHQPCTADEIPMEPGDIIGVAGN | 4.05
YAHQPSTADEIPMEPGDIIGVAGN | 4.46
YAHQPNTADEIPMEPGDIIGVAGN | 4.33
YAHQPETADEIPMEPGDIIGVAGN | 5.23
YAHQPDTADEIPMEPGDIIGVAGN | 4.54
YAHQPHTADEIPMEPGDIIGVAGN | 4.25
YAHQPITADEIPMEPGDIIGVAGN | 4.12
YAHQPFTADEIPMEPGDIIGVAGN | 3.46

Variant | protein stability index
YAHQPLTADEIPMEPGDIIGVAGN | 4.2
YAHQPWTADEIPMEPGDIIGVAGN | 2.62
YAHQPTTADEIPMEPGDIIGVAGN | 4.59
YAHQPQTADEIPMEPGDIIGVAGN | 4.47
YAHQPATADEIPMEPGDIIGVAGN | 4.48
YAHQPRFADEIPMEPGDIIGVAGN | 2.37
YAHQPRKADEIPMEPGDIIGVAGN | 3.56
YAHQPRHADEIPMEPGDIIGVAGN | 3.66
YAHQPRPADEIPMEPGDIIGVAGN | 3.97
YAHQPRDADEIPMEPGDIIGVAGN | 4.62
YAHQPREADEIPMEPGDIIGVAGN | 4.84
YAHQPRGADEIPMEPGDIIGVAGN | 4.18
YAHQPRCADEIPMEPGDIIGVAGN | 2.73
YAHQPRIADEIPMEPGDIIGVAGN | 3.66
YAHQPRLADEIPMEPGDIIGVAGN | 3.71
YAHQPRAADEIPMEPGDIIGVAGN | 4.18
YAHQPRNADEIPMEPGDIIGVAGN | 4.51
YAHQPRMADEIPMEPGDIIGVAGN | 3.68
YVHQPRTADEIPMEPGDIIGVAGN | 2.39
YTHQPRTADEIPMEPGDIIGVAGN | 4.49
YCHQPRTADEIPMEPGDIIGVAGN | 4.03
YLHQPRTADEIPMEPGDIIGVAGN | 4.67
YSHQPRTADEIPMEPGDIIGVAGN | 4.53
YPHQPRTADEIPMEPGDIIGVAGN | 4.43
YKHQPRTADEIPMEPGDIIGVAGN | 4.51
YGHQPRTADEIPMEPGDIIGVAGN | 4.69

Variant | protein stability index
YFHQPRTADEIPMEPGDIIGVAGN | 4.45
YEHQPRTADEIPMEPGDIIGVAGN | 5.05
YRHQPRTADEIPMEPGDIIGVAGN | 4.56
YNHQPRTADEIPMEPGDIIGVAGN | 4.92
YDHQPRTADEIPMEPGDIIGVAGN | 5.06
YMHQPRTADEIPMEPGDIIGVAGN | 4.38
YHHQPRTADEIPMEPGDIIGVAGN | 3.59
YYHQPRTADEIPMEPGDIIGVAGN | 4.3
YIHQPRTADEIPMEPGDIIGVAGN | 3.15
YWHQPRTADEIPMEPGDIIGVAGN | 3.63
YQHQPRTADEIPMEPGDIIGVAGN | 4.09
YAHQGRTADEIPMEPGDIIGVAGN | 3.96
YAHQRRTADEIPMEPGDIIGVAGN | 3.55
YAHQMRTADEIPMEPGDIIGVAGN | 3.53
YAHQQRTADEIPMEPGDIIGVAGN | 4.12
YAHQNRTADEIPMEPGDIIGVAGN | 4.33
YAHQDRTADEIPMEPGDIIGVAGN | 4.93
YAHQKRTADEIPMEPGDIIGVAGN | 3.61
YAHQLRTADEIPMEPGDIIGVAGN | 3.75
YAHQWRTADEIPMEPGDIIGVAGN | 1.88
YAHQTRTADEIPMEPGDIIGVAGN | 4.31
YAHQIRTADEIPMEPGDIIGVAGN | 3.4
YAHQFRTADEIPMEPGDIIGVAGN | 3.11
YAHQSRTADEIPMEPGDIIGVAGN | 3.85
YAHQVRTADEIPMEPGDIIGVAGN | 3.92
YAHQERTADEIPMEPGDIIGVAGN | 4.62

Variant | protein stability index
YAHQHRTADEIPMEPGDIIGVAGN | 3.85
YAHQARTADEIPMEPGDIIGVAGN | 4.23
YAHQCRTADEIPMEPGDIIGVAGN | 3.72
YAHQYRTADEIPMEPGDIIGVAGN | 3.48
KAHQPRTADEIPMEPGDIIGVAGN | 5
DAHQPRTADEIPMEPGDIIGVAGN | 5.19
AAHQPRTADEIPMEPGDIIGVAGN | 5.22
EAHQPRTADEIPMEPGDIIGVAGN | 4.92
RAHQPRTADEIPMEPGDIIGVAGN | 4.84
SAHQPRTADEIPMEPGDIIGVAGN | 4.88
HAHQPRTADEIPMEPGDIIGVAGN | 5.37
MAHQPRTADEIPMEPGDIIGVAGN | 5.19
LAHQPRTADEIPMEPGDIIGVAGN | 4.75
NAHQPRTADEIPMEPGDIIGVAGN | 4.75
PAHQPRTADEIPMEPGDIIGVAGN | 5.26
CAHQPRTADEIPMEPGDIIGVAGN | 3.93
FAHQPRTADEIPMEPGDIIGVAGN | 3.6
WAHQPRTADEIPMEPGDIIGVAGN | 4.52
GAHQPRTADEIPMEPGDIIGVAGN | 5.17
TAHQPRTADEIPMEPGDIIGVAGN | 5.16
QAHQPRTADEIPMEPGDIIGVAGN | 5.12
IAHQPRTADEIPMEPGDIIGVAGN | 5.16
VAHQPRTADEIPMEPGDIIGVAGN | 4.28

Variants of: B2
Experiment: as above
Details: c terminus: a fixed tail appended

Variant | protein stability index
SRHLNSQVKKSTTRWCHIVRDSDS | 1.83
SRHLNSQVKKATTRWCHIVRDSDS | 3.08
SRHLNSQVKKTRTRWCHIVRDSDS | 2.09
SRHLNSQVKKTSTRWCHIVRDSDS | 2.62
SRHLNSQVKKTDTRWCHIVRDSDS | 2.91
SLHLNSQVKKTTTRWCHIVRDSDS | 2.17
STHLNSQVKKTTTRWCHIVRDSDS | 2.15
SRHLNSQVKKTTTRWCHIVRDWDS | 2.08
SRHLNSQVKKTTTRWCHIVRDDDS | 1.72
SRHLNSQVKFTTTRWCHIVRDSDS | 1.78
SRHLNSQVKVTTTRWCHIVRDSDS | 2.71
SRHLNSQVKYTTTRWCHIVRDSDS | 1.69
SRHLNSQVKKTTTRWCHILRDSDS | 2.35
SRHLNSQVKKTTTRWCHITRDSDS | 3.13
SRHLNSQVCKTTTRWCHIVRDSDS | 2.13
SRHLNSQVSKTTTRWCHIVRDSDS | 2.26
SRHLNSQVIKTTTRWCHIVRDSDS | 1.97
SRHLNSQVAKTTTRWCHIVRDSDS | 2.48
SRHLNPQVKKTTTRWCHIVRDSDS | 3.03
SRHLNKQVKKTTTRWCHIVRDSDS | 2.38
SRHLNSQVKKTTTRWCHIVWDSDS | 1.57

Variant | protein stability index
SRHLNSQVKKTTTRWCHIVHDSDS | 2.29
SRHLNSQVKKTTTRWCHIVFDSDS | 2.37
SRHLKSQVKKTTTRWCHIVRDSDS | 1.8
SRHLYSQVKKTTTRWCHIVRDSDS | 2.16
SRHLGSQVKKTTTRWCHIVRDSDS | 2.79
SRHLTSQVKKTTTRWCHIVRDSDS | 2.38
SRHLDSQVKKTTTRWCHIVRDSDS | 2.53
SRHLISQVKKTTTRWCHIVRDSDS | 2.73
SRHLHSQVKKTTTRWCHIVRDSDS | 2.56
SRHLVSQVKKTTTRWCHIVRDSDS | 1.29
LRHLNSQVKKTTTRWCHIVRDSDS | 1.51
NRHLNSQVKKTTTRWCHIVRDSDS | 2.51
SRHLNSQVKKTTTRSCHIVRDSDS | 3.84
SRHLNSQVKKTTTRLCHIVRDSDS | 2.77
SRHLNSQVKKTTTRGCHIVRDSDS | 3.24
SRHLNSVVKKTTTRWCHIVRDSDS | 1.4
SRHLNSDVKKTTTRWCHIVRDSDS | 2.65
SRHLNSQVKKTTTRWCHWVRDSDS | 2.15
SRHLNSQVKKTTTRWCHQVRDSDS | 3.09
SRHLNSQVKKTTTRWCHFVRDSDS | 2.82
SRHLNSQIKKTTTRWCHIVRDSDS | 2.35

Variant | protein stability index
SRHLNSQVKKTTTRWEHIVRDSDS | 2.34
SRHLNSQVKKTTTRWPHIVRDSDS | 2.57
SRHLNSQVKKTTTRWDHIVRDSDS | 3.34
SRHLNSQVKKTTTRWCHIVRVSDS | 1.37
SRHLNSQVKKTTTRWCHIVRESDS | 1.5
SRHLNSQVKKTTTRWCHIVRWSDS | 2.23
SRHLNSQVKKTTTRWCHIVRMSDS | 1.82
SRHLNSQVKKTTTRWCHIVRDSPS | 2.78
SRHLNSQVKKTTTPWCHIVRDSDS | 2
SRHLNSQVKKTTTWWCHIVRDSDS | 1.65
SRHLNSQVKKTTTIWCHIVRDSDS | 1.94
SRHLNSQVKKTTFRWCHIVRDSDS | 1.81
SRWLNSQVKKTTTRWCHIVRDSDS | 1.53
SRFLNSQVKKTTTRWCHIVRDSDS | 2.77
SRNLNSQVKKTTTRWCHIVRDSDS | 1.69
SRRLNSQVKKTTTRWCHIVRDSDS | 1.79
SRILNSQVKKTTTRWCHIVRDSDS | 1.25
SRHLNSQVKKTTTRWCPIVRDSDS | 2.31
SRHLNSQVKKTTTRWCFIVRDSDS | 2.75
